Assays:
[1] = molecular target: T1, cynomolgus monkey folate receptor alpha (cynomolgus monkey, UniProt P15328 25-234 (human entry)); experiment: FACS, CHO-cFOLR1 cells
T1 construct: Expressed on the surface of stably transfected CHO cells; also called cyno FolR1; CHO-cyno FolR1
Protocol: (§1) CHO cells were transfected to stably express human (CHO-hFOLR1), cynomolgus (CHO-cFOLR1), or mouse (CHO-mFOLR1) target molecule FOLR1 on the cell surface. Parental CHO cells were used as a negative control to determine background binding levels. Parental CHO and stably transfected CHO-hFOLR1, CHO-cFOLR1, and CHO-mFOLR1 cells were cultured in Ham's F-12: high glucose DMEM (50:50) (Corning, Cellgro-Mediatech) supplemented with 10% heat-inactivated fetal bovine serum (Corning, Cellgro-Mediatech), 1% Penicillin/Streptomycin (Corning, Cellgro-Mediatech) and 2 mmol/L-glutamax (Life Technology).
(§2) A mixture of fluoresecent-labeled parental CHO cells and unlabeled CHO-hFOLRlcells were prepared as follows. Parental CHO cells were washed twice in PBS and incubated in PBS containing with 1 nM CellTrace™ Oregon Green488® (Life Technologies) at 37° C. for 30 minutes. Labeled parental CHO cells were then washed 2× with Ham's F-12 media and 2× with FACS buffer (PBS with 1% bovine serum albumin). Unlabeled CHO-hFOLR1 cells were similarly washed and prepared. Labeled parental CHO and unlabeled CHO-hFOLR1 cells were combined at 1:1 ratio and seeded at 50 μL per well (200,000 cells per well) in 96 well polypropylene plates. Cells were mixed with 50 μL of test antibodies (i.e., anti-FOLR1 variants) serially diluted in FACS buffer and incubated on ice for 60 mins. […] Data were analyzed using FlowJo® software (FlowJo, LLC; Ashland, OR) to determine mean fluorescence intensities. Binding constants were calculated using the statistical software, GraphPad Prism (GraphPad Software; La Jolla, CA) using the nonlinear regression equation, one site-specific binding with Hill slope. Secondary antibody alone was used as a control, in addition to measuring non-specific antibody binding to CHO parental cells.

[2] = molecular target: T2, human folate receptor alpha (hFOLR1) (human, UniProt P15328 25-234); experiment: FACS, CHO-hFOLR1 cells;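 further: flow cytometry of serially diluted antibodies binding CHO cells stably expressing the receptor, 60 min on ice, mixed with dye-tagged parental CHO as background control, one-site specific fit with Hill slope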
T2 construct: endogenous on FOLR1-positive KB and Igrov1 cells (cell killing); also called human FolR1; FolRα
Protocol: as §1, §2

[3] = molecular target: T3, murine folate receptor alpha (mouse, UniProt P35846 25-232); experiment: FACS, CHO-mFOLR1 cells;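 further: flow cytometry binding of serially diluted test antibodies to transfected CHO cells on ice, mean fluorescence intensity, parental CHO cells give background, Kd from one-site specific binding fit with Hill slope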
T3 construct: Expressed on the surface of stably transfected CHO cells; also called mouse FolR1; CHO-mouse FolR1

[4] = molecular target: T2, human folate receptor alpha (hFOLR1); experiment: cell-based or functional assay

T2 sequence (P15328 25-234 limits assumed): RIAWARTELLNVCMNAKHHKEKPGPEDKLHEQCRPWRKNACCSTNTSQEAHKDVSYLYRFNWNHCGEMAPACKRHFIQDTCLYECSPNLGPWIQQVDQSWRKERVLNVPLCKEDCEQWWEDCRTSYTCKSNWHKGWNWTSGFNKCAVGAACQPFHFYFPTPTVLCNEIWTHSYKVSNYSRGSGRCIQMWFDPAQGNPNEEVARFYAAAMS
T3 sequence (P35846 25-232 limits assumed): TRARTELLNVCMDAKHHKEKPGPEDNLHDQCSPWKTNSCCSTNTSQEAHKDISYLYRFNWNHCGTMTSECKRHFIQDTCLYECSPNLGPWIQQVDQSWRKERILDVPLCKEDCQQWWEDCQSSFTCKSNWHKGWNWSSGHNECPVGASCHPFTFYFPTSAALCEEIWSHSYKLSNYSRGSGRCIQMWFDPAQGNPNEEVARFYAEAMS
T1 sequence (P15328 other isoform, or with tags, fused parts or gaps limits assumed): as the sequence (P15328 25-234 limits assumed) above, with I2T, W4R, R37K, Q117R, A146P, H171Y counted along it

Binder	Bmax (MFI) [1] [MFI]	Kd [1] [nM]	Bmax (MFI) [2] [MFI]	Kd [2] [nM]	binding result [3]	Igrov, 2° Antibody Cell Killing, Nb-SC239: EC50 [4] [nM]	Igrov, 2° Antibody Cell Killing, Nb-SC239: Span [4] [%]	KB, 2° Antibody Cell Killing, Nb-239: EC50 [4] [nM]	KB, 2° Antibody Cell Killing, Nb-239: Span [4] [%]	Bmax (MFI) [3] [MFI]	Kd [3] [nM]
SRP1848-D07 (antibody, V domains shown, HC variant paired with trastuzumab LC, cell-free expressed, HIS- and FLAG-tagged; also called Antibody 28) VH: EVQLVESGGGLVQPGGSLRLSCAASGFNISKYYIHWVRQAPGKGLEWVGGISPNDGYTDYADSVKGRFAISADTSKNTAYLQMNSLRAEDTAVYYCARGFWAWRSGYGYYLDYWGQGTLVTVSS VL: not shown	24300	0.92	25700	0.77	no binding	0.032	71	0.075	94	–	–
SRP1848-D10 (antibody, V domains shown, HC variant paired with trastuzumab LC, cell-free expressed, HIS- and FLAG-tagged; also called Antibody 30) VH: EVQLVESGGGLVQPGGSLRLSCAASGFNISRNSIHWVRQAPGKGLEWVGWISPNDGTTDYADSVKGRFTISADGSKNTAYLQMNSLRAEDTAVYYCARGAWSWRSGYGYYIDYWGQGTLVTVSS VL: not shown	20600	0.52	26500	0.48	–	0.012	54	0.016	90	1860	13
SRP1848-E02 (antibody, V domains shown, HC variant paired with trastuzumab LC, cell-free expressed, HIS- and FLAG-tagged; also called SKP1848-E02; Antibody 32) VH: EVQLVESGGGLVQPGGSLRLSCAASGFNIGKYSIHWVRQAPGKGLEWVGEIYPNDGNTDYADSVKGRFTISADTSKNTAYLQMNSLRAEDTAVYYCARGSWSWRSGYGYYLDYWGQGTLVTVSS VL: not shown	18700	0.59	23800	0.53	–	0.025	71	0.046	93	1470	21
SRP1848-F06 (antibody, V domains shown, HC variant paired with trastuzumab LC, cell-free expressed, HIS- and FLAG-tagged; also called Antibody 41) VH: EVQLVESGGGLVQPGGSLRLSCAASGFNISLSYIHWVRQAPGKGLEWVGGISPIDGNTDYADSVKGRFTISADTSKNTAYLQMNSLRAEDTAVYYCARGFWAWRSGYGYYLDYWGQGTLVTVSS VL: not shown	26500	0.86	25600	0.87	no binding	0.032	77	0.066	94	–	–
SRP1848-F01 (antibody, V domains shown, HC variant paired with trastuzumab LC, cell-free expressed, HIS- and FLAG-tagged; also called Antibody 37) VH: EVQLVESGGGLVQPGGSLRLSCAASGFNIRTYSIHWVRQAPGKGLEWVGSIFPNDGTTDYADSVKGRFTISADTSKNTAYLQMNSLRAEDTAVYYCARGSWAWRAGYSYYLDYWGQGTLVTVSS VL: not shown	21500	0.43	25200	0.56	–	0.018	69	0.047	91	3750	1.8
SRP1848-E07 (antibody, V domains shown, HC variant paired with trastuzumab LC, cell-free expressed, HIS- and FLAG-tagged; also called Antibody 36) VH: EVQLVESGGGLVQPGGSLRLSCAASGFNIRKSSIHWVRQAPGKGLEWVGEIFPYDGSTDYADNVKGRFTISADTSKNTAYLQMNSLRAEDTAVYYCARGAWSWRSGYGYYIDYWGQGTLVTVSS VL: not shown	20400	0.23	27300	0.54	–	0.013	73	0.059	94	11800	1.2
SRP1848-F07 (antibody, V domains shown, HC variant paired with trastuzumab LC, cell-free expressed, HIS- and FLAG-tagged; also called Antibody 42) VH: EVQLVESGGGLVQPGGSLRLSCAASGFNISNHSIHWVRQAPGKGLEWVGEIYPNDGITDYADSVKGRFTISADTSKNTAYLQMNSLSAEDTAVYYCARGSWDWRSGYSYYLDYWGQGTLVTVSS VL: not shown	18700	0.56	27400	0.58	–	0.018	71	0.057	92	1390	8.8
SRP1848-E01 (antibody, V domains shown, HC variant paired with trastuzumab LC, cell-free expressed, HIS- and FLAG-tagged; also called Antibody 31) VH: EVQLVESGGGLVQPGGSLRLSCAASGFNITNKYIHWVRQAPGKGLEWVGGITPFDGFTDYADSVKGRFTISADTSKNTAYLQMNSLRAEDTAVYYCARGSWSWPAGYGYYQDYWGQGTLVTVSS VL: not shown	22400	0.96	26400	1.01	no binding	0.029	72	0.088	92	–	–
SRP1848-D09 (antibody, V domains shown, HC variant paired with trastuzumab LC, cell-free expressed, HIS- and FLAG-tagged; also called Antibody 29) VH: EVQLVESGGGLVQPGGSLRLSCAASGFNISNYYIHWVRQAPGKGLEWVGGISPNDGYTDYADSVKGRFTISADTSKNTAYLQMNSLRAEDTAVYYCARGSWSWRHGYGYYLDYWGQGTLVTVSS VL: not shown	21300	0.65	25000	0.46	no binding	0.023	70	0.042	91	–	–
SRP1848-E05 (antibody, V domains shown, HC variant paired with trastuzumab LC, cell-free expressed, HIS- and FLAG-tagged; also called Antibody 34) VH: EVQLVESGGGLVQPGGSLRVSCAASGFNIGVYYIHWVRQAPGKGLEWVGGITPNDGYTDYADSVKGRFTISADTSKNTAYLQMNSLRAEDTAVYYCARGFWAWRSGYGYYLDYWGQGTLVTVSS VL: not shown	28200	0.55	27300	0.46	no binding	0.027	78	0.071	95	–	–
SRP1848-F05 (antibody, V domains shown, HC variant paired with trastuzumab LC, cell-free expressed, HIS- and FLAG-tagged; also called Antibody 40) VH: EVQLVESGGGLVQPGGSLRLSCAASGFNISKSSIHWVRQAPGKGLEWVGEIYPNDGSTDYADSVKGRFTISADTSKNTAYLQMNSLRAEDTAVYYCARGSWAWRSGYSYFLDYWGQGTLVTVSS VL: not shown	24700	0.61	27200	0.72	–	0.015	74	0.061	94	5100	18
SRP1848-F02 (antibody, V domains shown, HC variant paired with trastuzumab LC, cell-free expressed, HIS- and FLAG-tagged; also called Antibody 38) VH: EVQLVESGGGLVQPGGSLRLSCAASGFNIRTYSIHWVRQAPGKGLEWVGSIFPNDGTTDYADSVKGRLTISADTSKNTAYLQMNSLRAEDTAVYYCARGSWSWQAGYGYYLDYWGQGTLVTVSS VL: not shown	14900	0.19	25700	0.62	–	0.009	54	0.054	92	2740	2.6

Reference: patent US20250090676A1 (SUTRO BIOPHARMA, published 2025)
